Target: syntaxin 1 (rat (endogenous in PC12)) (UniProt P32851)
Assay: immunostaining of cells or tissue; PC12 membrane sheets incubated in buffer at 37 °C for increasing periods before fixation, immunostained for Munc18–1; no re-binding (large volume of buffer); trace fitted to a double-exponential decay

Chain of UniProt P32851 (P32851 whole entry): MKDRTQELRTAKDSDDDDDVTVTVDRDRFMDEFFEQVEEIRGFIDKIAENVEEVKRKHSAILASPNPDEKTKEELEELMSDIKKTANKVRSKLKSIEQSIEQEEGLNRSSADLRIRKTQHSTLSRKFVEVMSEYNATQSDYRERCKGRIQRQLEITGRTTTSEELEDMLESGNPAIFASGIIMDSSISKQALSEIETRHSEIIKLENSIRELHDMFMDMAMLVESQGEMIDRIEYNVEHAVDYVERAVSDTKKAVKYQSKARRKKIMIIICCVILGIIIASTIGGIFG

In the case of “Munc18–1 (from UniProt P61765 1-594) (natural protein)”, the half-time of dissociation from the membrane, fast component of a double-exponential decay is reported as 5 s and the half-time of dissociation from the membrane, slow component of a double-exponential decay is reported as 1000 s.

Source: paper PMC1570500
